Source: US20050002959A1 (GlaxoSmithKline, published 2005)
Where “and” joins values, the source holds several entries; their conditions need not be identical. Equal entries are not always repeated.

B1: recombinant human IL4 (non-glycosylated, produced in E. coli) (ligand, UniProt P05112 25-153, looked up)
chain: HKCDITLQEIIKTLNSLTEQKTLCTELTVTDIFAASKNTTEKETFCRAATVLRQFYSHHEKDTRCLGATAQQFHRHKQLIRFLKRLDRNLWGLAGLNSCPVKEANQSTLENFLERLKTIMREKYSKCSS
notes: also called hIL4; hIL-4
B2: humanized 3B9 (IgG4 variant) (antibody, V domains shown)
VH: QVTLRESGPALVKPTQTLTLTCTFSGFSLSTSGMGVSWIRQPPGKGLEWLAHIYWDDDKRYNPSLKSRLTISKDTSRNQVVLTMTNMDPVDTATYYCARRETVFYWYFDVWGRGTPVTVSS
VL: IVMTQSPDSLAVSLGERATINCKASQSVDYDGDSYMNWYQQKPGQPPKLLIYAASNLESGVPDRFSGSGSGTDFTLTISSLQAEDVAVYYCQQSNEDPPRFGGGTKVEIKR
B3: humanized 3B9 (IgG1) (antibody, V domains shown)
VH: B2 VH
VL: B2 VL
notes: Human IgG1 heavy constant region and human kappa constant region; also called humanized MAb 3B9; 3B9 (Humanized)

Assays:
[1] = target: T1, IL4 receptor on the gibbon cell line MLA [ATCC TIB201] (gibbon); assay: displacement of 125I-rhIL4 (83 pM) from gibbon MLA cells
T1 construct: whole, on cells; also called its receptor
Procedure: The ability of 3B9 to inhibit the binding of IL4 to its receptor was studied using ¹²⁵I-rhIL4 binding to the gibbon cell line, MLA [ATCC TIB201], that bears approximately 6000 receptors per cell. MLA cells were incubated with […] for 30 minutes at 37° C. Uptake of radioactivity was determined in a gamma counter after separation of cell bound ¹²⁵I-IL4 by centrifugation through an oil-gradient. Non-specific binding was determined by incubating in the presence of a 100-fold molar excess of unlabelled IL4 [Park et al, J. Exp. Med., 166:476-488 (1987)]. The IC₅₀ value for unlabeled IL4 in this assay was 22 pM when the amount of (added) IL4 was 83 pM. For intact murine (IgG) 3B9 the IC₅₀ was 63 pM, and 93 pM for the Fab fragment.

[2] = target: B1; assay: cell-based or functional assay
[3] = target: B1; assay: titration microcalorimetry, pH 7.4, 150 mM NaCl, 25° C.
Procedure: (§1) The affinity and detailed thermodynamics of IL4 binding to humanized MAb 3B9 and murine 3B9 (Example 1) were determined by titration microcalorimetry.

[4] = target: B1; assay: titration microcalorimetry, calculated for pH 7.4, 150 mM NaCl, 25° C. by the Gibbs-Helmholz equation
Procedure: as §1

Binder: B1
- IC50 [1]: 0.022 nM

Binder: B2
- IC50, B cell proliferation [2]: 0.079 nM
- IC50, IgE synthesis [2]: 0.406 nM
- IC50, T cell proliferation [2]: 0.04 nM

Binder: B3
- IC50, CD23 induction [2]: 0.333 nM
- IC50, IgE synthesis [2]: 0.054 nM and 0.035 nM and 0.083 nM
- IC50, T cell proliferation [2]: 0.044 nM and 0.03 nM and 0.056 nM
- -TΔS [3]: 8.2 kcal/mol IL4
- ΔG [3]: -13.6 kcal/mol IL4
- ΔH [3]: -21.8 kcal/mol IL4
- Kd [4]: 0.011 nM
